Columns and labels:
[1] = target: T1, Rad4-Rad23 delta-beta-hairpin3 (<137>) (UniProt P14736;P32628 101-598+606-632;1-77+230-398, internal_change;internal_change); assay: competitive EMSA; apparent Ks; 1000 nM cold CH7_NX competitor; EMSA: 5 mM BTP-HCl pH 6.8, 75 mM NaCl, 5 mM DTT, 5% glycerol, 0.74 mM CHAPS, 500 ug/ml BSA, room temperature 20 min, 5 nM labeled DNA, 1000 nM cold CH7_NX; conditions: protein: recombinant; tags: N-terminal His tag on Rad4; copies: 1;1; label: 32P; 3-bp CCC/CCC mismatch; 5' overhang 1 nt at both ends
T1 sequence 1: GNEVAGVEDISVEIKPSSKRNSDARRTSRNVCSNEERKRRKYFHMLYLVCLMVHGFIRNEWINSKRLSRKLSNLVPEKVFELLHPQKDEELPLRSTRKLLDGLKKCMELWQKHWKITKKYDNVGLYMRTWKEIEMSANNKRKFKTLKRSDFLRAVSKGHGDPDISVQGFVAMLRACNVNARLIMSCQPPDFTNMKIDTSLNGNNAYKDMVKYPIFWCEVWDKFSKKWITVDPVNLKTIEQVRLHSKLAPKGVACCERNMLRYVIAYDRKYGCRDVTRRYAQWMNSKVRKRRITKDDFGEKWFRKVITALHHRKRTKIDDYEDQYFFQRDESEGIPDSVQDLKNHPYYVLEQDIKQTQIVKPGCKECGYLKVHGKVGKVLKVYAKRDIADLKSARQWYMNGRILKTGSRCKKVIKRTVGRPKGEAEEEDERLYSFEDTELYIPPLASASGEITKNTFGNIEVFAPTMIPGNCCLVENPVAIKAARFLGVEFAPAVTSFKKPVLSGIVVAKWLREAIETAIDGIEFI
T1 sequence 2: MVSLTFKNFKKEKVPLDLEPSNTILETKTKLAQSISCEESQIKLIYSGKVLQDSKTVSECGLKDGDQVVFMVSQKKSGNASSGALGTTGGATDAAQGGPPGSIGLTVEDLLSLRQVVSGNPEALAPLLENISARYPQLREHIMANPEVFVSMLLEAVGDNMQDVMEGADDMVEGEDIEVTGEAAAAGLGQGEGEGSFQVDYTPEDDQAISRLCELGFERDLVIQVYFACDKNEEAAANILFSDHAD

[2] = target: T2, Rad4-Rad23 WT (no thrombin cleavage) (UniProt P14736;P32628 101-632;1-77+230-398, internal_change); assay: as above; conditions: protein: recombinant; tags: N-terminal His tag on Rad4; copies: 1;1; label: 32P; 3-bp CCC/CCC mismatch; 5' overhang 1 nt at both ends
T2 sequence 1: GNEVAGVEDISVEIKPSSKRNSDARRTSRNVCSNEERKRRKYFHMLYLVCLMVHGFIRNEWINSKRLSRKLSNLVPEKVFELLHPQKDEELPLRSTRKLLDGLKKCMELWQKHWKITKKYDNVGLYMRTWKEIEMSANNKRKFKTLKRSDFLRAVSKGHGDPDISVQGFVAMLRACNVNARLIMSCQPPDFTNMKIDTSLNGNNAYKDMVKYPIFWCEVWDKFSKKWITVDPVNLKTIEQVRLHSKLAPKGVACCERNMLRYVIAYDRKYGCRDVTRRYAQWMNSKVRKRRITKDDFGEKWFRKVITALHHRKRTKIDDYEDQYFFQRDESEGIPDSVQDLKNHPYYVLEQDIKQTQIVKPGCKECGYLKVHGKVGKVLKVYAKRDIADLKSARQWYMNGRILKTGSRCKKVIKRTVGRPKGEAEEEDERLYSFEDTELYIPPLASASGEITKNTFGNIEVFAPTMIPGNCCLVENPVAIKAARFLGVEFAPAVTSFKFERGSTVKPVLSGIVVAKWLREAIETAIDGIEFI
T2 sequence 2: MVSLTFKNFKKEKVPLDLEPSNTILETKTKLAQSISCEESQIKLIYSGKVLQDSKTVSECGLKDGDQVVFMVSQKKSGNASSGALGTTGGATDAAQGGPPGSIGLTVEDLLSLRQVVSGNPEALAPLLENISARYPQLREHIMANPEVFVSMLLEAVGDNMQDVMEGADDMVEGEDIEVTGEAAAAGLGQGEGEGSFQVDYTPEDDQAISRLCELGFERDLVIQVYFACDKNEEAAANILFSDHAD

[3] = target: T3, Rad4-Rad23 delta-beta-hairpin2 (<130>) (UniProt P14736;P32628 101-514+528-632;1-77+230-398, internal_change;internal_change); assay: as above; conditions: protein: recombinant; tags: N-terminal His tag on Rad4; copies: 1;1; label: 32P; 3-bp CCC/CCC mismatch; 5' overhang 1 nt at both ends
T3 sequence 1: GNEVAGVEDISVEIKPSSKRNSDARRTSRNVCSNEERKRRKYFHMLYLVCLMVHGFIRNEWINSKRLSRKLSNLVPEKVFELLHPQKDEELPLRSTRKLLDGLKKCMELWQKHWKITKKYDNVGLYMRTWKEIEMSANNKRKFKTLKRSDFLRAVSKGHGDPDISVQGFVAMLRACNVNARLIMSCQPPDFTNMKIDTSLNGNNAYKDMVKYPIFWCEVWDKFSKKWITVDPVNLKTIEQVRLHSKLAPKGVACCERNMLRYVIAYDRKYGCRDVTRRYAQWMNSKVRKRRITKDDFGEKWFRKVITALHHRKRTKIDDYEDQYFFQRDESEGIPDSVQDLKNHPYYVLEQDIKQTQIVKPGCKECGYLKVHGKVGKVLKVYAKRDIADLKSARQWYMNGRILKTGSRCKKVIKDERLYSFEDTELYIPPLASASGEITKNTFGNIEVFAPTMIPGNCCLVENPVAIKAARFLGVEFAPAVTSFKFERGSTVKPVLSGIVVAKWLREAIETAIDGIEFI
T3 sequence 2: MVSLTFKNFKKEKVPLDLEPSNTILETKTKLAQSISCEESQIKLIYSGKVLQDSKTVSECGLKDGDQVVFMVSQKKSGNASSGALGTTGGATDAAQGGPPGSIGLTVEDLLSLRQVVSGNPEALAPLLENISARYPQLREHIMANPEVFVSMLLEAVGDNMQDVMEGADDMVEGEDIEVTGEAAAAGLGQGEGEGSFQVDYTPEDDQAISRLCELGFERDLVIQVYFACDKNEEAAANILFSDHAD

[4] = target: T1, Rad4-Rad23 delta-beta-hairpin3 (<137>); assay: competitive EMSA; apparent Kns; 1000 nM cold CH7_NX competitor; EMSA: 5 mM BTP-HCl pH 6.8, 75 mM NaCl, 5 mM DTT, 5% glycerol, 0.74 mM CHAPS, 500 ug/ml BSA, room temperature 20 min, 5 nM labeled DNA, 1000 nM cold CH7_NX; conditions: protein: recombinant; tags: N-terminal His tag on Rad4; copies: 1;1; label: 32P; fully matched; 5' overhang 1 nt at both ends
[5] = target: T2, Rad4-Rad23 WT (no thrombin cleavage); assay: as above; conditions: protein: recombinant; tags: N-terminal His tag on Rad4; copies: 1;1; label: 32P; fully matched; 5' overhang 1 nt at both ends
[6] = target: T3, Rad4-Rad23 delta-beta-hairpin2 (<130>); assay: as above; conditions: protein: recombinant; tags: N-terminal His tag on Rad4; copies: 1;1; label: 32P; fully matched; 5' overhang 1 nt at both ends
[7] = target: T4, Rad4-Rad23 WT crosslinkable (<SC32>) (UniProt P14736;P32628 101-632;1-77+230-398, V131C;C132S;internal_change); assay: fluorescence lifetime FRET; non-covalent, equimolar; EMSA: 5 mM BTP-HCl pH 6.8, 75 mM NaCl, 5 mM DTT, 5% glycerol, 0.74 mM CHAPS, 500 ug/ml BSA, room temperature 20 min, 5 nM labeled DNA, 1000 nM cold CH7_NX; conditions: protein: recombinant; tags: N-terminal His tag on Rad4 (fluorescence); copies: 1;1; label: tCo donor, tCnitro acceptor; 3-bp CCC/CCC mismatch
T4 sequence 1: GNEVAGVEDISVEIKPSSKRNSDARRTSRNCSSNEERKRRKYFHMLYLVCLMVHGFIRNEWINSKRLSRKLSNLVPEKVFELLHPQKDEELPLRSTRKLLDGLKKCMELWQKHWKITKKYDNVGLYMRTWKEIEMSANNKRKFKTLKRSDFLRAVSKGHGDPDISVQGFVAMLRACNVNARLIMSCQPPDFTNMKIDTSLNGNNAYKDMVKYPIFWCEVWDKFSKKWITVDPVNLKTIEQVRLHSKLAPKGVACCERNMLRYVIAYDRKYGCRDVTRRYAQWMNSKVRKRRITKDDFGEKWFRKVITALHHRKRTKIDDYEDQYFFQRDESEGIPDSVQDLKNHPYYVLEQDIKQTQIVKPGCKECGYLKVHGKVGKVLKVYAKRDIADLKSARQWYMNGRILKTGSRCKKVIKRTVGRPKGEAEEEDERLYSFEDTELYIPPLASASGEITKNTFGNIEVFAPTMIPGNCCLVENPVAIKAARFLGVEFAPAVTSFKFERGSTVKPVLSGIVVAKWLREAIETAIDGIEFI
T4 sequence 2: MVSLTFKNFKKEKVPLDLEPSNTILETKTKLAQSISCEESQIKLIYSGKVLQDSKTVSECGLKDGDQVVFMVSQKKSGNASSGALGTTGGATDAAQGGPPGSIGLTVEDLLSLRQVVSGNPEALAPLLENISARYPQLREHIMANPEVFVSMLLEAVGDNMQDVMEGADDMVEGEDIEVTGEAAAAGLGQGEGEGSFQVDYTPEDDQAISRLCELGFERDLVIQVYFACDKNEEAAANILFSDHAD

B1: CCC/CCC mismatched (CH10_NX) (dsDNA)
DNA 1: TTGACTCGACATCCCCCGCTACAA
DNA 2: ATTGTAGCCCCGGATGTCGAGTCA
Kd [1]: ~200 nM
Kd [2]: ~60 nM
Kd [3]: ~260 nM

B2: CCC/GGG matched (dsDNA)
DNA 1: TTGACTCGACATCCCCCGCTACAA
DNA 2: ATTGTAGCGGGGGATGTCGAGTCA
Kd [4]: ~510 nM
Kd [5]: ~370 nM
Kd [6]: ~700 nM

B3: CCC/CCC_G*_DA (dsDNA)
DNA 1: TTGACTCGACATCCCCCGGTACAA
DNA 2: ATTGTACCCCCGGATGTCGAGTCA
modifications: disulfide-modified guanine G* in top strand
binding result [7]: binds

Source: publication PMC7708039, “Tethering-facilitated DNA ‘opening’ and complementary roles of β-hairpin motifs in the Rad4/XPC DNA damage sensor protein”
